Consider two molecules from US7704703B2, “Arf and Hdm2 interaction domains and the methods of use thereof” (St. Jude Children's Research Hospital, Inc., priority 2002, dated 2010).

Assay [1] has as its target T1, GFP-p19^Arf (Mus musculus, UniProt Q64364).
T1 construct: expressed in transfected cells; host or cells: NIH 3T3 Arf-/- cells
T1 sequence (Q64364 1-169): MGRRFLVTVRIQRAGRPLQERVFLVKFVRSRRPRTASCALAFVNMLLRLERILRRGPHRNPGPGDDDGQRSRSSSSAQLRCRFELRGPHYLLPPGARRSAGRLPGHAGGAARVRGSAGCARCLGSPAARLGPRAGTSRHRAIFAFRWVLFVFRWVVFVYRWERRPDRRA
Description: Microinjection and live cell imaging of Texas Red labeled Hdm2 constructs in NIH 3T3 cells lacking Arf. To be noted: transfected with GFP-p19^Arf. The format is cell-based. As to the method: Fluorescent labeling. Proteins for fluorescence microimaging studies were covalently modified using an amine-reactive, sulfosuccinimidyl ester of TEXAS RED® (C31H29S2N2O6Cl1) (Molecular Probes, Inc., Cat. # C-1171). In brief, purified Hdm2-derived proteins were dialyzed into 100 mM sodium bicarbonate buffer, pH 8.3 at 2-4 mg/ml. The Texas Red™ dye was dissolved in dimethylsulfoxide at 10 mg/ml. Protein and dye 3:1 (vol:vol) were reacted for 1 hour at room temperature followed by purification using size-exclusion chromatography (NAP 5 G-25 columns, Amersham Pharmacia Biotech, Inc.). […]
Cell culture and microinjection. […] GFP-Arf positive cells were then located and co-injected with TEXAS RED® (C31H29S2N2O6C1 labeled Hdm2 polypeptides (2 mg/ml in 20 mM Tris-HCl, 100 mM NaCl, pH 7.0) using a Micromanipulator 5171/Transjector 5246 (Eppendorf, AG) in media supplemented with 10 mM HEPES, pH 7.2 to buffer cell media during injection and imaging. Representative cells were imaged over time. An Axiovert 135 TV inverted fluorescence microscope with an automated stage controller (Carl Zeiss, Inc.) and circulating water bath heater (Fisher) was used for both microinjection and imaging. Images were acquired with a Zeiss 40×NA=1.30 oil objective and MicroMax CCD camera (Princeton Instruments Inc.) operated with MetaMorph Version 4.01 imaging software. […]

In assay [2] the target is T2, mArfN37 (Mus musculus, UniProt Q64364).
T2 construct: mouse p19^Arf corresponding to residues 1-37 (mArfN37); made in house; host or cells: E. coli BL21(DE3) (purified 'in a similar manner' to the Hdm2 fragments)
T2 sequence (Q64364 1-37 limits assumed): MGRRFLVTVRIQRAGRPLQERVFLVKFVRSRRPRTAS
Briefly: Surface plasmon resonance: Hdm2 fragments and peptides binding to immobilized His-tagged mArfN37. As to conditions: Hdm2 protein fragments as analyte; no binding to control surface. As to the method:
Surface Plasmon Resonance. Binding studies were performed using a Biacore 3000 surface plasmon resonance (SPR) instrument (Biacore, Inc.). A Tetra-His™ Antibody (Qiagen, Inc.; Cat. #34670) was covalently attached to a carboxymethylated gold surface (C-1 chip; Biacore, Inc.). The carboxymethyl groups on the surface were activated with N-ethyl-N′-(3-dimethylaminopropyl) carbodiimide (EDC) and N-hydroxysuccinimide (NHS) and the antibody was attached at pH 7.4 in 20 mM sodium phosphate buffer, 150 mM NaCl (PBS). Reactive sites remaining on the surface were blocked by reaction with ethanolamine. […] Binding was measured by flowing the non-His-tagged analyte through the reference and ligand-containing flow cells in sequence. […] Changes in the SPR response due to solvent differences and the injection process were monitored by injection of HBS-N buffer alone. […]
Small segments of Arf and Hdm2 participate in Arf/Hdm2 interactions. […] However, because mArfN37 is a relatively small polypeptide, it was determined whether it could bind a correspondingly small segment of Hdm2. To test this hypothesis and to monitor Arf/Hdm2 binding reactions quantitatively, Hdm2 constructs were prepared spanning amino acids 210-304 of SEQ ID NO:8 and 210-275 of SEQ ID NO:8 and then it was determined whether they could bind mArfN37 using surface plasmon resonance (SPR). […]
A general note: In SPR one partner is held on a chip, and binding of the other changes the refractive index at the surface.

B1: Hdm2 277-350: Texas Red labeled Hdm2 deletion construct containing residues 277-350 (protein)
chain: QVTVYQAGESDTDSFEEDPEISLADYWKCTSCNEMNPPLPSHCNRCWALRENWLPEDKGKDKGEISEKAKLENS
For the molecule B1, the “localization after nuclear microinjection in the presence of GFP-p19^Arf” value in assay [1] is recorded as “localized in the nucleoplasm rather than in nucleoli”.

B2: Hdm2 210-275: fragment of Hdm2 corresponding to residues 210-275 of SEQ ID NO:8 (protein, listed as Homo sapiens)
chain: SSSSESTGTPSNPDLDAGVSEHSGDWLDQDSVSDQFSVEFEVESLDSEDYSLSEEGQELSDEDDEV
With B2, the “binding of Hdm2 fragment to His-tagged mArfN37 immobilized on SPR biosensor surface” value in assay [2] was “bind tightly”. For the same molecule, in assay [1], the “localization after nuclear microinjection in the presence of GFP-p19^Arf” value was “nucleolar localization”.
